Article doi:10.1101/2022.08.09.502851, “Dystroglycan N-terminal domain enables LARGE1 to extend matriglycan on α-dystroglycan and prevents muscular dystrophy” (bioRxiv, 2022)
Changes are numbered by the printed parent chain. Names and notes keep the numbering of the source.

Target: T1, laminin-111 (mouse Engelbreth-Holm-Swarm (EHS) laminin) (mouse, UniProt P19137 25-3083; P02469 22-1786; P02468 34-1607)
T1 construct: laminin subunit alpha-1 of laminin-111, mouse EHS laminin; laminin subunit beta-1 of laminin-111, mouse EHS laminin; laminin subunit gamma-1 of laminin-111, mouse EHS laminin; source: bought: ThermoFisher, 23017015 (mouse Engelbreth-Holm-Swarm laminin); copies: + +
Assay: ELISA; solid-phase assay: WGA eluates of skeletal muscle diluted 1:50 in TBS coated on polystyrene microplates overnight at 4 °C; Laminin-111 in laminin-binding buffer; bound laminin detected with L9393 and HRP anti-rabbit IgG, absorbance at 490 nm; three replicates for each group
Conditions: one partner purified

B1: α-dystroglycan (α-DG), wild type, with full-length matriglycan, from control (WT littermate or C57BL/6J) mouse skeletal muscle (receptor, mouse (endogenous in skeletal muscle), UniProt Q62165 28-651, looked up)
chain: HWPSEPSEAVRDWKNQLEASMHSVLSDFQEAVPTVVGIPDGTAVVGRSFRVSIPTDLIASSGEIIKVSAAGKEALPSWLHWDPHSHILEGLPLDTDKGVHYISVSAARLGANGSHVPQTSSVFSIEVYPEDHNEPQSVRAASSDPGEVVPSACAADEPVTVLTVILDADLTKMTPKQRIDLLNRMQSFSEVELHNMKLVPVVNNRLFDMSAFMAGPGNAKKVVENGALLSWKLGCSLNQNSVPDIRGVETPAREGAMSAQLGYPVVGWHIANKKPTLPKRLRRQIHATPTPVTAIGPPTTAIQEPPSRIVPTPTSPAIAPPTETMAPPVRDPVPGKPTVTIRTRGAIIQTPTLGPIQPTRVSEAGTTVPGQIRPTLTIPGYVEPTAVITPPTTTTKKPRVSTPKPATPSTDSSTTTTRRPTKKPRTPRPVPRVTTKAPITRLETASPPTRIRTTTSGVPRGGEPNQRPELKNHIDRVDAWVGTYFEVKIPSDTFYDNEDTTTDKLKLTLKLREQQLVGEKSWVQFNSNSQLMYGLPDSSHVGKHEYFMHATDKGGLSAVDAFEIHVHKRPQGDKAPARFKARLAGDPAPVVNDIHKKIALVKKLAFAFGDRNCSSITLQNITRG
modifications: matriglycan [-GlcA-β1,3-Xyl-α1,3-]n, full length (α-DG of ~150-250 kDa); extensive O-glycosylation
notes: α-dystroglycan, the α-subunit cut from the DG pre-proprotein (Dag1), mouse; also called α-DG (WT)
- Kd: 0.966 ± 0.069 nM

B2: α-dystroglycan with the knock-in mutation T190M, from Dag1 T190M mouse skeletal muscle (receptor, UniProt Q62165 28-651, looked up)
chain: B1 chain with T163M
modifications: matriglycan shorter than wild type (α-DG laminin-binding band at ~100-150 kDa)
notes: α-dystroglycan, the α-subunit cut from the DG pre-proprotein (Dag1), mouse, knock-in T190M (Hara et al., 2011); also called α-DGN mutant (T190M)
- Kd: 1.9 ± 0.199 nM
